Experimental data as given in patent US20120040894A1.
Numbered stars: 1 amine (or outer) side, 2 acyl side, 3 side chain; on linkers, the order of the positions; unused ones are H or OH. Square brackets hold non-standard residues; d marks the D form. Ends that are not written are not given here. Dap(AcBr) = N-(bromoacetyl)-L-2,3-diaminopropionic acid, O=C(CBr)NC[C@H](N[*:1])C(=O)[*:2]; Oic = O=C(O)[C@@H]1C[C@@H]2CCCC[C@@H]2N1; Dip = N[C@H](C(=O)O)C(c1ccccc1)c1ccccc1; β3hF = N[C@H](CC(=O)O)Cc1ccccc1; Chg = N[C@H](C(=O)O)C1CCCCC1; Phg = N[C@H](C(=O)O)c1ccccc1; Tle = CC(C)(C)[C@H](N)C(=O)O; β3hP = O=C(O)C[C@@H]1CCCN1; Dpa = not defined here

Biological target: T1, ferroportin tagged at the C-terminus with green fluorescent protein (ECR293/Fpn-GFP cells)
T1 sequence (Q9NP59 whole entry, species assumed, looked up): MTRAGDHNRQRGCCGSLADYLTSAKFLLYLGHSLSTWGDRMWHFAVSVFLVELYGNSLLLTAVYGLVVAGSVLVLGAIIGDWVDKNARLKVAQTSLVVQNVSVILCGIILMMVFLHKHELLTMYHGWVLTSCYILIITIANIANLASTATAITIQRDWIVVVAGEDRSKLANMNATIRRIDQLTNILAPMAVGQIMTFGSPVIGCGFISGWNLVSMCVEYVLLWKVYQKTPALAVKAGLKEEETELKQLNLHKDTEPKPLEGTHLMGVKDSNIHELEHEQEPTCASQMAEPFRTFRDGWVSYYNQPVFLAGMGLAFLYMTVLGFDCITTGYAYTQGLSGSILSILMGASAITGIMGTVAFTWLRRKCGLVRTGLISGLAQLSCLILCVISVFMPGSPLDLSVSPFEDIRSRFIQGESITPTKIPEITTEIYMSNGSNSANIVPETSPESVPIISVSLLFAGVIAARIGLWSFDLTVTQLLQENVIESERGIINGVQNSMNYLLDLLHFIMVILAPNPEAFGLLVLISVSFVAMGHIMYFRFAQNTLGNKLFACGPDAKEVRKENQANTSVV
Test: cell-based or functional assay

B1: Pr19 (peptide)
peptide: DTHFPICI[β3hF]PPK-NH2
B1 gave an EC50 (nM); loss of fluorescence of Fpn-GFP cells, flow cytometry of 700 nM.

B2: Pr41 (peptide)
peptide: D[Dpa]PICI[Dpa]-NH2
modifications: reading uncertain
Work on B2 yielded an EC50 (nM); loss of fluorescence of Fpn-GFP cells, flow cytometry of 300 nM.

B3: Pr46 (peptide)
peptide: DTH[Dip]PCCC[Dip]-NH2
modifications: also: any disulfide between the Cys residues not recoverable
In the case of B3, the EC50 (nM); loss of fluorescence of Fpn-GFP cells, flow cytometry is reported as 80 nM.

B4: Pr22 (peptide)
peptide: DTHFPICI[β3hF]P[β3hP]R-NH2
Work on B4 yielded an EC50 (nM); loss of fluorescence of Fpn-GFP cells, flow cytometry of 600 nM.

B5: Pr10 (peptide)
peptide: D[Tle]H[Phg][Oic][Chg]C[Chg]F-NH2
modifications: N-terminus assumed
SMILES: CC(C)(C)[C@H](NC(=O)[C@@H](N)CC(=O)O)C(=O)N[C@@H](Cc1c[nH]cn1)C(=O)N[C@H](C(=O)N1[C@H](C(=O)N[C@H](C(=O)N[C@@H](CS)C(=O)N[C@H](C(=O)N[C@@H](Cc2ccccc2)C(N)=O)C2CCCCC2)C2CCCCC2)C[C@@H]2CCCC[C@@H]21)c1ccccc1
Binder B5 has an EC50 (nM); loss of fluorescence of Fpn-GFP cells, flow cytometry of over 3000 nM.

B6: Pr21 (peptide)
peptide: DTHFPICI[β3hF]P[β3hP]K-NH2
For B6, the EC50 (nM); loss of fluorescence of Fpn-GFP cells, flow cytometry was 500 nM.

B7: Pr40 (peptide)
peptide: D[Dpa]PICIF-NH2
modifications: reading uncertain
B7 was tested, and the EC50 (nM); loss of fluorescence of Fpn-GFP cells, flow cytometry was 70 nM.

B8: Dap(AcBr) (peptide)
peptide: DTHFPI[Dap(AcBr)]IF-NH2
modifications: N-terminus assumed
SMILES: CC[C@H](C)[C@H](NC(=O)[C@H](CNC(=O)CBr)NC(=O)[C@@H](NC(=O)[C@@H]1CCCN1C(=O)[C@H](Cc1ccccc1)NC(=O)[C@H](Cc1c[nH]cn1)NC(=O)[C@@H](NC(=O)[C@@H](N)CC(=O)O)[C@@H](C)O)[C@@H](C)CC)C(=O)N[C@@H](Cc1ccccc1)C(N)=O
B8 gave an EC50 (nM); loss of fluorescence of Fpn-GFP cells, flow cytometry of over 10000 nM.

B9: Pr20 (peptide)
peptide: DTHFPICI[β3hF]PPR-NH2
Binder B9 has an EC50 (nM); loss of fluorescence of Fpn-GFP cells, flow cytometry of 200 nM.

B10: Pr11 (peptide)
peptide: D[Tle]HP[Oic][Chg]C[Chg]F-NH2
modifications: also: retroinverted
In the case of B10, the EC50 (nM); loss of fluorescence of Fpn-GFP cells, flow cytometry is reported as over 3000 nM.
